Experimental findings from article PMC9483790 are described below.

As a reminder, the stoichiometry N is the number of molecules, sites or subunits per partner or assembly.

In this test the target is endogenous pyruvate kinase M2 (PKM2) (human (endogenous in PLC/PRF/5, SMMC-7721, HCCLM3, Huh7)) (UniProt P14618). The test is described as follows: cross-linking.

Sequence of endogenous pyruvate kinase M2 (PKM2), P14618 1-531 (enzyme; other documents disagree on this pair) (P14618 whole entry): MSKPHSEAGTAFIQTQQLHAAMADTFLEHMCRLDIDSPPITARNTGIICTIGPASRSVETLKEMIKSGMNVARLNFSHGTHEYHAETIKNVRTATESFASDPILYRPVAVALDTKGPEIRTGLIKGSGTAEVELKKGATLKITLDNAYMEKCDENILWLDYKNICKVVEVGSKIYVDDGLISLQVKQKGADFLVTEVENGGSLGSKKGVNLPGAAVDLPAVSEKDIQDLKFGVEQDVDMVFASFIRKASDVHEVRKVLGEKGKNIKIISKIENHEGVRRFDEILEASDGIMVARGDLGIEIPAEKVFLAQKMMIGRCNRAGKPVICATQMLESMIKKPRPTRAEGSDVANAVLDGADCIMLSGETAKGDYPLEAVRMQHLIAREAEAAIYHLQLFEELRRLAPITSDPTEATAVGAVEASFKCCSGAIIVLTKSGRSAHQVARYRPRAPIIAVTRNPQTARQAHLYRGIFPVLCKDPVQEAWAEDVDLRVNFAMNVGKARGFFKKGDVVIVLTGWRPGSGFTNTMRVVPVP

On to “endogenous pyruvate kinase M2 (PKM2), P14618 1-531 (enzyme; other documents disagree on this pair)”, for which the stoichiometry N was 2.
